Data from article PMC2811064.

Target: semi-synthetic KcsA^(70,82) channel (UniProt P0A334)
Assay: SDS-PAGE

stoichiometry N: 4
Substance: semi-synthetic KcsA^(70,82) channel (from UniProt P0A334 1-69; P0A334 82-160) (natural protein)
